This passage reports C-GS (times co-purified) results from patent publication US20120324602A1.

Holding throughout (test): TAP-MS, C-terminal GS tag
Experiment [1] concerns the target 26S proteasome regulatory subunit (RPN9) (Arabidopsis thaliana).
Experiment [2] addresses expressed protein, similar to At4g22320 (AT5G55210) (Arabidopsis thaliana).
Experiment [3] has as its target DNA-binding bromodomain-containing protein (AT1G20670) (Arabidopsis thaliana).
In experiment [4] the target is T1, SWIRM domain-containing protein (SWI3C) (Arabidopsis thaliana).
T1 sequence (Q9XI07 1-807, looked up): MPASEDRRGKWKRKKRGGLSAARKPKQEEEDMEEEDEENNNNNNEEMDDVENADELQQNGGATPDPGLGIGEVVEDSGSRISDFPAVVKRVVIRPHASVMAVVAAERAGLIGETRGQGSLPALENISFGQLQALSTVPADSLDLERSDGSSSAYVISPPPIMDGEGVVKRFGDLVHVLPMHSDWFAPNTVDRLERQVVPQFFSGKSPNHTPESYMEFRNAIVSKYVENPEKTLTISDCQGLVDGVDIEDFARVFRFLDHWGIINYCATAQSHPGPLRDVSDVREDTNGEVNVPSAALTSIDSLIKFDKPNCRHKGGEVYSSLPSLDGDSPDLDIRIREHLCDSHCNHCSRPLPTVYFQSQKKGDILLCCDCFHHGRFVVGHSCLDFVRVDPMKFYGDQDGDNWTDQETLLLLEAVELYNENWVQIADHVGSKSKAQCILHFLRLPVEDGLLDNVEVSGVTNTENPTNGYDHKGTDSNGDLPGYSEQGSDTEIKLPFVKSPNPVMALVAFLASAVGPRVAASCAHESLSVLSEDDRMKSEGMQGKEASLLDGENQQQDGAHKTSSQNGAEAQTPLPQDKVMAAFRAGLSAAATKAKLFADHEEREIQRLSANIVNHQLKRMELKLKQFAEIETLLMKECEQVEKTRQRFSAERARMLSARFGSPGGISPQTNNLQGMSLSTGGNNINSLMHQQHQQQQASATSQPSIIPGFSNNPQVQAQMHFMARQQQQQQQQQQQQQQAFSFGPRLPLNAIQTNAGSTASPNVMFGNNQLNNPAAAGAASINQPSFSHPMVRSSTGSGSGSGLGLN

Experiment [5] deals with T2, phytochrome A supressor spa1 (SPA1) (Arabidopsis thaliana).
T2 sequence (Q9SYX2 1-1029, looked up): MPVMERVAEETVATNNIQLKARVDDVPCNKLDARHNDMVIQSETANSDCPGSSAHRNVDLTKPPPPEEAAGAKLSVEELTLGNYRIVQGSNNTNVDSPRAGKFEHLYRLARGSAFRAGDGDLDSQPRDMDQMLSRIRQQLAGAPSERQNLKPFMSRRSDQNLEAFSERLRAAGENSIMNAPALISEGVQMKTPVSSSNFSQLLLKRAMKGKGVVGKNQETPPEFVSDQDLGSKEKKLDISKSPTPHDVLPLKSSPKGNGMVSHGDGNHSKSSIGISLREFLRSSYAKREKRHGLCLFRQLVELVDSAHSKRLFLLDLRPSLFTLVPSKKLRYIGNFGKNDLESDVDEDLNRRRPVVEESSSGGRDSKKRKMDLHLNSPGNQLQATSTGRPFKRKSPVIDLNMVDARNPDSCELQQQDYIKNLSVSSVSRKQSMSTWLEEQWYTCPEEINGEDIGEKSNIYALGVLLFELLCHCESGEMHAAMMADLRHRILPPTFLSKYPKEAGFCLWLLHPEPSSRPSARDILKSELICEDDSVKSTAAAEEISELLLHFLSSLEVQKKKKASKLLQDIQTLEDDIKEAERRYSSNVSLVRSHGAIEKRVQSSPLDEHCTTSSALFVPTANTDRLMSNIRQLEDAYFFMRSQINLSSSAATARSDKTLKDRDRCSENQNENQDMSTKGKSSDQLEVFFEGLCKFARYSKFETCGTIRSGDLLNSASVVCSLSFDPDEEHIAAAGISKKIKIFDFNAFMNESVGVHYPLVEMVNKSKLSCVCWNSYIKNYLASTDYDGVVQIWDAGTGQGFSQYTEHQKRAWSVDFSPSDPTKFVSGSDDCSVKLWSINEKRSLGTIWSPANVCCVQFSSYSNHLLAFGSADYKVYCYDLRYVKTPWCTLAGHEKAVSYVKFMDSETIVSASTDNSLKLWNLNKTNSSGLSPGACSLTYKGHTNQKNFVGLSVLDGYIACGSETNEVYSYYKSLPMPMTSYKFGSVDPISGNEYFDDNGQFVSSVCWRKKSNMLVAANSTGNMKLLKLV

For experiment [6], the target named is SWIB complex BAF60b domain-containing protein (Swp73B) (Arabidopsis thaliana).
Experiment [7] has as its target G2484-1, agenet domain-containing protein (Arabidopsis thaliana).
Experiment [8] concerns the target importin alpha-1 subunit (IMPA1) (Arabidopsis thaliana).
The target of experiment [9] is T3, actin-related protein 7 (ARP7) (Arabidopsis thaliana).
T3 sequence (Q8L4Y5 1-363, looked up): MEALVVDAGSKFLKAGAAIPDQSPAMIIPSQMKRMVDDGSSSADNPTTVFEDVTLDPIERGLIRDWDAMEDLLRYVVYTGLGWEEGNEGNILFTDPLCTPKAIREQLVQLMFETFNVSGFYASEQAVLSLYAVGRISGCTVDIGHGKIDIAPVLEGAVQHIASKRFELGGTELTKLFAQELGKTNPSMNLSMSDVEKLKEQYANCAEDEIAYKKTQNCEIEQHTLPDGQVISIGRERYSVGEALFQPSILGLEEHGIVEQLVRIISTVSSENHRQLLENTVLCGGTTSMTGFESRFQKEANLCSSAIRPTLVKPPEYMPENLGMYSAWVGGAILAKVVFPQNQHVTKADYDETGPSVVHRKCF

The target of experiment [10] is expressed protein (AT5G13030) (Arabidopsis thaliana).
Experiment [11] concerns the target splicing factor (AT3G55220) (Arabidopsis thaliana).
Experiment [12] concerns the target expressed protein, similar to At3g03460 (AT5G17510) (Arabidopsis thaliana).
The target of experiment [13] is T4, actin-related protein 4 (ARP4) (Arabidopsis thaliana).
T4 sequence (Q84M92 1-441, looked up): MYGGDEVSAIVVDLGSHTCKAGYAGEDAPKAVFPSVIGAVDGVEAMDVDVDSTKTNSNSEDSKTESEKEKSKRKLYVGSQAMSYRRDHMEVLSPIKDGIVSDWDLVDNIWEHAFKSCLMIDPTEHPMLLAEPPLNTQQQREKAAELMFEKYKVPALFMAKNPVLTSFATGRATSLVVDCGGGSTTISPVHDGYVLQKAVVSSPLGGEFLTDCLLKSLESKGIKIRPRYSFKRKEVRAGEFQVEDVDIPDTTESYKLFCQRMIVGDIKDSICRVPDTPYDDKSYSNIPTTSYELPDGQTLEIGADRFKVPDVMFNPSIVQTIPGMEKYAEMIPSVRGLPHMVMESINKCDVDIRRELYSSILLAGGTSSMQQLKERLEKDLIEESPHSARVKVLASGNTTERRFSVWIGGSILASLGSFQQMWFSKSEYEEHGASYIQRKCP

Experiment [14] deals with chromatin remodeling protein (SYD) (Arabidopsis thaliana).
Experiment [15] addresses importin alpha-2 (IMPA2) (Arabidopsis thaliana).
In experiment [16] the target is homeobox-leucine zipper protein (HB-2)/HD-ZIP protein (Arabidopsis thaliana).
In experiment [17] the target is SNF2 protein (BRM) (Arabidopsis thaliana).
Experiment [18] concerns the target importin alpha-1 subunit (IMPA4) (Arabidopsis thaliana).
Experiment [19] addresses expressed protein, similar to DAG protein (AT3G15000) (Arabidopsis thaliana).
Experiment [20] has as its target importin beta-2 (Arabidopsis thaliana).
Experiment [21] concerns the target T5, SE (SERRATE) (Arabidopsis thaliana).
T5 sequence (Q9ZVD0 1-720, looked up): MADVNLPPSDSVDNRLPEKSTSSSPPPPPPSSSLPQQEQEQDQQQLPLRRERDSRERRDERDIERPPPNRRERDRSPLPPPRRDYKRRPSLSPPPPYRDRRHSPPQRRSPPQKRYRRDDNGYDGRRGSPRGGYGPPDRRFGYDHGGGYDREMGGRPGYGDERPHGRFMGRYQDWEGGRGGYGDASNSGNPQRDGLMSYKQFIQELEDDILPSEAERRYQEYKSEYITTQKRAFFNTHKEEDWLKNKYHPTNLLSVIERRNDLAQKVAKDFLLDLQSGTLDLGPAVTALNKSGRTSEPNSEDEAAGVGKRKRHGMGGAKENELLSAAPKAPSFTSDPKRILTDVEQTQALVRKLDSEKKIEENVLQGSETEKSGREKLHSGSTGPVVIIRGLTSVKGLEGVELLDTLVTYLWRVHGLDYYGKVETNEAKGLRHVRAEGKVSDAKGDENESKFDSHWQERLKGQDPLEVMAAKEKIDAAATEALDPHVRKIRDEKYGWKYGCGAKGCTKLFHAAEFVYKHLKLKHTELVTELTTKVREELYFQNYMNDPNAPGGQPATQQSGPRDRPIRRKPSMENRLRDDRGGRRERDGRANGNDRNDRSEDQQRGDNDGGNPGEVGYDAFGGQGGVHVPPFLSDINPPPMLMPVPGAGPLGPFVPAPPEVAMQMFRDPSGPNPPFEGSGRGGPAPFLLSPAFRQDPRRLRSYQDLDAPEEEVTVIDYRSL

Experiment [22] has as its target RD21 (RESPONSIVE TO …ON 21) (Arabidopsis thaliana).
Experiment [23] has as its target Swp73A (Arabidopsis thaliana).
Experiment [24] deals with unknown protein, similar to At5g17510 (AT3G03460) (Arabidopsis thaliana).
Experiment [25] addresses DNA-binding bromodomain-containing protein, similar to At1g20670 (AT5G55040) (Arabidopsis thaliana).
The target of experiment [26] is DNA-binding bromodomain-containing protein, similar to At1g20670 (AT1G76380) (Arabidopsis thaliana).

B1: AN3-GS (protein, UniProt Q8L8A5 1-210, looked up)
GRF1-interacting factor 1: MQQHLMQMQPMMAGYYPSNVTSDHIQQYLDENKSLILKIVESQNSGKLSECAENQARLQRNLMYLAAIADSQPQPPSVHSQYGSAGGGMIQGEGGSHYLQQQQATQQQQMTQQSLMAARSSMLYAQQQQQQQPYATLQHQQLHHSQLGMSSSSGGGGSSGLHILQGEAGGFHDFGRGKPEMGSGGGGEGRGGSSGDGGETLYLKSSDDGN
modifications: C-terminal GS tag
In the case of B1, the C-GS (times co-purified) in experiment [1] worked out at 1; in experiment [2], 4; in [3] it was 1; in [4] it was 4; in [5] it was 1; in experiment [6], 4. The C-GS (times co-purified) in experiment [7] came to 4; in experiment [8], 4; in experiment [9], 4; in [10], 1; in experiment [11], 1; in experiment [12], 3. In addition, the C-GS (times co-purified) in [13] came to 4; in experiment [14], 4; in experiment [15], 4; in experiment [16], 1; in [17], 4; in experiment [18], 1. Also, the figures for the C-GS (times co-purified) in experiment [19] and in [20] were 3 and 4, respectively.

B2: ARP4-GS (protein, UniProt Q84M92 1-441, looked up)
Actin-related protein 4: T4 sequence (Q84M92 1-441, looked up)
modifications: C-terminal GS tag
Take B2: the C-GS (times co-purified) in [2] was 1; in experiment [3], 2; in experiment [21] it was 1; in experiment [22], 2; in experiment [4], 2; in [6], 2. The C-GS (times co-purified) in experiment [23] turned out to be 2; in [24] it was 1; in experiment [9], 2; in [25], 1; in [12] it was 2; in [26], 2. Further, in [17], the C-GS (times co-purified) came to 2.
